B1: Mannan-binding lectin serine protease 2 (Homo sapiens), O00187-2 (parent)
chain: MRLLTLLGLLCGSVATPLGPKWPEPVFGRLASPGFPGEYANDQERRWTLTAPPGYRLRLYFTHFDLELSHLCEYDFVKLSSGAKVLATLCGQESTDTERAPGKDTFYSLGSSLDITFRSDYSNEKPFTGFEAFYAAEDIDECQVAPGEAPTCDHHCHNHLGGFYCSCRAGYVLHRNKRTCSEQSL

Tests used:
mbl2_human MBL2, P11226 = variants of: B1; conditions: with mbl2_human MBL2, P11226
fcn2_human FCN2, Q15485 = variants of: B1; conditions: with fcn2_human FCN2, Q15485
Chain of fcn2_human FCN2, Q15485 (Q15485 whole entry): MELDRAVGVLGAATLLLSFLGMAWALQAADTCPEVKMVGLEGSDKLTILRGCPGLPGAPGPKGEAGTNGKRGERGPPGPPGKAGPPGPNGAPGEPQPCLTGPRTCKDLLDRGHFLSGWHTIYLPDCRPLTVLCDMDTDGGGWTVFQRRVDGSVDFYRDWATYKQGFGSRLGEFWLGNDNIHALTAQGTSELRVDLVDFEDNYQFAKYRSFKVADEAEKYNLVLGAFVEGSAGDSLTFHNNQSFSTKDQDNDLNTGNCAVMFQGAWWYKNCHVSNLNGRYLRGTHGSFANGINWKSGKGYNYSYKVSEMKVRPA

Chain of mbl2_human MBL2, P11226 (P11226 whole entry): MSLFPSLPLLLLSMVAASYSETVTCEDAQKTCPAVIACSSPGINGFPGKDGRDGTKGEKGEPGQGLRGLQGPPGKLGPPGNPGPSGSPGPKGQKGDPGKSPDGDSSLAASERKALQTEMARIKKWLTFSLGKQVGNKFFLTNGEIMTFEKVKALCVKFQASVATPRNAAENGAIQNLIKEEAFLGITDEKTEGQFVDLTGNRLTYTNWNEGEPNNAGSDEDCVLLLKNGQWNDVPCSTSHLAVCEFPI

effect of a mutation on the interaction (mbl2_human MBL2, P11226)	effect of a mutation on the interaction (fcn2_human FCN2, Q15485)	Variant
with no effect	with no effect	E73A
decreasing interaction strength	decreasing interaction strength	D75A
decreasing interaction strength	with no effect	E124A
decreasing interaction strength	decreasing interaction strength	E148A
with no effect	with no effect	R56A
disrupting interaction strength	disrupting interaction strength	D120G
with no effect	with no effect	E93Q

Second part, the variant before the results:

Variant	effect of a mutation on the interaction (mbl2_human MBL2, P11226)	effect of a mutation on the interaction (fcn2_human FCN2, Q15485)
E98A	decreasing interaction strength	decreasing interaction strength
D96N	with no effect	with no effect
Y74A	disrupting interaction strength	disrupting interaction strength
Y121A	disrupting interaction strength	disrupting interaction strength
H70A	with no effect	with no effect

— IntAct's records for PubMed 15117939
